In article PMC8301817, “Phylogenetic Diversity of Lhr Proteins and Biochemical Activities of the Thermococcales aLhr2 DNA/RNA Helicase”:

Tests used:
Experiment in all cases: filter binding; 5 mM Mg2+; 25 mM Tris-HCl pH 8, 50 mM NaAc, 5 mM MgCl2, 2.5 mM beta-mercaptoethanol; protein preincubated 10 min 65 C, binding 15 min 30 C; 0.5 nM substrate (Methods); Resu
Paby-Hel308 = molecular target: T1, Paby-Hel308 (Pyrococcus abyssi, UniProt Q9V0A9 1-715); settings: protein: recombinant, tags: untagged
T1 sequence: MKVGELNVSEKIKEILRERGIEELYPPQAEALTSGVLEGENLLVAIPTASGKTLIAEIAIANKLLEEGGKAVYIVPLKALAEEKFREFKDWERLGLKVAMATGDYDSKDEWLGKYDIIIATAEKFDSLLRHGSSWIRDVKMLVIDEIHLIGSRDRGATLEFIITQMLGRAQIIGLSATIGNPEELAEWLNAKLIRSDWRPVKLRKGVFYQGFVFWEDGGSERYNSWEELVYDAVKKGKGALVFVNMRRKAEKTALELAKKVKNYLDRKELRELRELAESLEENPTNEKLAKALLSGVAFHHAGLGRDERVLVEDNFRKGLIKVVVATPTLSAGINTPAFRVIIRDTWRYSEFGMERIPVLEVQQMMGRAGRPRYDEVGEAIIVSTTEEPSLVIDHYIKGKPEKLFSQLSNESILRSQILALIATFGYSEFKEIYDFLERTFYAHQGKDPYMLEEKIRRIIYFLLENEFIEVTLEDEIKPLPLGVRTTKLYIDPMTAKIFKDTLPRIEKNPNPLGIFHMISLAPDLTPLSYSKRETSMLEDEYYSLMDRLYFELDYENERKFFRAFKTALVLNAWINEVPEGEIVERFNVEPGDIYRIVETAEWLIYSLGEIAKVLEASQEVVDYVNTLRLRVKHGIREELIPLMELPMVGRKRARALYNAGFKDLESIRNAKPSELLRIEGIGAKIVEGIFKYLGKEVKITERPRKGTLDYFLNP

Tbar-aLhr2-Dom4 = molecular target: T2, Tbar-aLhr2-Dom4 (Thermococcus barophilus, UniProt F0LJX3 514-863); settings: protein: recombinant; tags: untagged; label: 5'-32P; single strand
T2 sequence: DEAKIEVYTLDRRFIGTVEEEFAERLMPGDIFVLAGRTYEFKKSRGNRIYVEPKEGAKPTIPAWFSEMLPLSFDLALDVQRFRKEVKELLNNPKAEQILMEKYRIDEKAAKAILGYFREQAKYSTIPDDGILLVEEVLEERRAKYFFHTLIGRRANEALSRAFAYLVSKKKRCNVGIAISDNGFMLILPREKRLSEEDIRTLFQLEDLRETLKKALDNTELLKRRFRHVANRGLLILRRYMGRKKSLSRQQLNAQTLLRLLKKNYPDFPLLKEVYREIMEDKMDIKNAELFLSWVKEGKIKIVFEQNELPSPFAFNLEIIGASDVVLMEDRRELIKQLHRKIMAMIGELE

Tbar-aLhr2 WT = molecular target: T3, Tbar-aLhr2 WT (Thermococcus barophilus, UniProt F0LJX3 1-863); settings: protein: recombinant, tags: untagged, chain copies: 4
T3 sequence: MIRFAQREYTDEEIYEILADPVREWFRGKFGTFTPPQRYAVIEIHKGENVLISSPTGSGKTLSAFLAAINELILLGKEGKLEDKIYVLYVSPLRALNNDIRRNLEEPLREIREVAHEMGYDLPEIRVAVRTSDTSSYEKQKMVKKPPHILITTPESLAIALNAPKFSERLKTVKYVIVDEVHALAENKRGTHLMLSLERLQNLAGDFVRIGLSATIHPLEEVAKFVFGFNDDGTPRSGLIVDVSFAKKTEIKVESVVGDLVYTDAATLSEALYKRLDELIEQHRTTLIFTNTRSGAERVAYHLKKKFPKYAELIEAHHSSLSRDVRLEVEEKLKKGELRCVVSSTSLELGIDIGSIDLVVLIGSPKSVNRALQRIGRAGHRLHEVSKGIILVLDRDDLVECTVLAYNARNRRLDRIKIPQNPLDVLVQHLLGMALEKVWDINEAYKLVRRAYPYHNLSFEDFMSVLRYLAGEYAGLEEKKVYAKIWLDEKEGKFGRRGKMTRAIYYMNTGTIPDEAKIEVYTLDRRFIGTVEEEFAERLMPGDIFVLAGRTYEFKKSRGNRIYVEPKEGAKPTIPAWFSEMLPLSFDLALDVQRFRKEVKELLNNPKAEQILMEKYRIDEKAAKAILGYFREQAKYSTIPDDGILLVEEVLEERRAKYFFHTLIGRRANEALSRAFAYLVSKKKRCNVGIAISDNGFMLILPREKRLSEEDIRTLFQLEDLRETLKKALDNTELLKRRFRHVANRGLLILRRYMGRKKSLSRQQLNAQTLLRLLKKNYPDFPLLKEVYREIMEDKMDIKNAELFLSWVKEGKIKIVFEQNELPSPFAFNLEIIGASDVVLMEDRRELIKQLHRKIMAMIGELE

Tbar-aLhr2-ΔDom4 = molecular target: T4, Tbar-aLhr2-ΔDom4 (Thermococcus barophilus, UniProt F0LJX3 1-513); settings: protein: recombinant; tags: untagged; label: 5'-32P; single strand
T4 sequence: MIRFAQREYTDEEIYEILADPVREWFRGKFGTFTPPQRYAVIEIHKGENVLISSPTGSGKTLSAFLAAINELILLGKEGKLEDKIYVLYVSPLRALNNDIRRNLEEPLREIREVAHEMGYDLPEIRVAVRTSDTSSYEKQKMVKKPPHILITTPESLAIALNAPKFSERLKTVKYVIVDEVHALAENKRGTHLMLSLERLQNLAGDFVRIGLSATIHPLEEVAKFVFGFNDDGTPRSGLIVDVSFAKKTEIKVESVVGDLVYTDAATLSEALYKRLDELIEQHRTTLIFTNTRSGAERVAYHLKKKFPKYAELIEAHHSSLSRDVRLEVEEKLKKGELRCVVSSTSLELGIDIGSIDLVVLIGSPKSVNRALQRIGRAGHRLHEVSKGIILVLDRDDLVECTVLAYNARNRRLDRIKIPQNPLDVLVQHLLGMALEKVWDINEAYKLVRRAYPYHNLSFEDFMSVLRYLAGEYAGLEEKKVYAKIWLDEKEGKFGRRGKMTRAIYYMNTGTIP

[1] = label: 5'-32P on DNA31, 3' overhang 28 nt

B1: RNA50 (ssRNA)
RNA: AUCGAUAGUCUCUAGACAGCAUGUCCUAGCAAGCCAGAAUUCGGCAGCGU
Paby-Hel308; label: 5'-32P, single strand
  Kd: 38 ± 1 nM
Tbar-aLhr2-Dom4
  Kd: 161 ± 5 nM
Tbar-aLhr2 WT; label: 5'-32P, single strand
  Kd: 41 ± 1 nM
Tbar-aLhr2-ΔDom4
  Kd: 69 ± 1 nM

B2: 3'RNA50:RNA26 (dsRNA)
RNA 1: B1 RNA
RNA 2: GGACAUGCUGUCUAGAGACUAUCGAU
Tbar-aLhr2 WT; label: 5'-32P on RNA26, 3' overhang 24 nt
  Kd: 39 ± 2 nM

B3: RNA26 (ssRNA)
RNA: ACGCUGCCGAAUUCUGGCUUGCUAGG
Tbar-aLhr2-Dom4
  Kd: 241 ± 17 nM
Tbar-aLhr2 WT; label: 5'-32P, single strand
  Kd: 80 ± 2 nM
Tbar-aLhr2-ΔDom4
  Kd: 150 ± 1 nM

B4: 3'DNA59:DNA31 (dsDNA)
DNA 1: GACGCTGCCGAATTCTACCAGTGCCTTGCTAGGACATCTTTGCCCACCTGCAGGTTCAC
DNA 2: TAGCAAGGCACTGGTAGAATTCGGCAGCGTC
Paby-Hel308; [1]
  Kd: 23 ± 1 nM
Tbar-aLhr2 WT; [1]
  Kd: 41 ± 2 nM

B5: DNA26 (ssDNA)
DNA: GGACATGCTGTCTAGAGACTATCGAT
Tbar-aLhr2-Dom4
  Kd: 277 ± 16 nM
Tbar-aLhr2 WT; label: 5'-32P, single strand
  Kd: 58 ± 2 nM
Tbar-aLhr2-ΔDom4
  Kd: 211 ± 9 nM

B6: DNA50 (ssDNA)
DNA: ATCGATAGTCTCTAGACAGCATGTCCTAGCAAGCCAGAATTCGGCAGCGT
Paby-Hel308; label: 5'-32P, single strand
  Kd: 32 ± 2 nM
Tbar-aLhr2-Dom4
  Kd: 162 ± 5 nM
Tbar-aLhr2 WT; label: 5'-32P, single strand
  Kd: 39 ± 1 nM
Tbar-aLhr2-ΔDom4
  Kd: 54 ± 1 nM
